Data from patent US20250108090A1 (published 2025).

Target: T1, mouse apoptosis inhibitor of macrophage (AIM), wild-type recombinant (mouse, UniProt Q9QWK4 22-352)
T1 construct: mature; also called rAIM; mouse AIM
T1 sequence (looked up): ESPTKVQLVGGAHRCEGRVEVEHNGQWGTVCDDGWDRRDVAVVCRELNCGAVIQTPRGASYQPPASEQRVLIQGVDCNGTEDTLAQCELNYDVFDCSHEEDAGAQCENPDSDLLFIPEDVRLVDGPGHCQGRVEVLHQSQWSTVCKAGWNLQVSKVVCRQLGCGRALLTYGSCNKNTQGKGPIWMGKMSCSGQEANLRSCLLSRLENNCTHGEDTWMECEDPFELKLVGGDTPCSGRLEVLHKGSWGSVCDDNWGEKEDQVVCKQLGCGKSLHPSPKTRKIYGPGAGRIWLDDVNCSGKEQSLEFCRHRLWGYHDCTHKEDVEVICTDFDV
Assay: immunofluorescence co-localisation on peritoneal macrophages, confocal microscope (FIG. 3H)
Description: Peritoneal macrophages isolated from AIM^{-/-} mice were plated on a Lab-Tek II chamber slide (NalgeNunk) and cultured for 2 h to let them attach to the slide. The cells were incubated with 10 μg/mL of DAMPs (mouse PRDX1-His, human PRDX1-His, human HMGB1, or mouse S100A9) with or without wild-type mouse or human rAIM (100 μg/mL) at 37° C. for 10 min. For mouse PRDX1, the mutants of 2CS or ΔSRCR3 were also used. Each ligand and AIM were immunostained with antibodies to His (for mouse and human PRDX1), HMGB1 or S100A9, followed by fluorescent-conjugated secondary antibodies. Nuclei were stained with 4′,6-diamidino-2-phenylindole (DAPI). The cells were analyzed under a florescence confocal microscope.

B1: mouse PRDX1-His (RPF757Mu01, USCN) (ligand, UniProt P35700 1-199, looked up)
chain: MSSGNAKIGYPAPNFKATAVMPDGQFKDISLSEYKGKYVVFFFYPLDFTFVCPTEIIAFSDRADEFKKLNCQVIGASVDSHFCHLAWINTPKKQGGLGPMNIPLISDPKRTIAQDYGVLKADEGISFRGLFIIDDKGILRQITINDLPVGRSVDEIIRLVQAFQFTDKHGEVCPAGWKPGSDTIKPDVNKSKEYFSKQK
notes: also called RPDX; not shown: His tag
Q: Does B1 bind?
A: binds
